Measured values published in publication PMC6774351 (Nature, 2019).

Biological target: the molecule itself
Assay: SEC

B1: engineered NEK7 dimer (artificial NEK7 dimer based on the PKR dimer structure) (enzyme)
chain: not shown
**Q.** Which “stoichiometry N” value does the source give for B1 here?
**A.** The value was 2.
